Like-named read-outs stand apart in the source and are kept apart here. Each block holds one binder with its values, some of them ahead of it.
Key:
[1] = target: T1, transferrin (human, UniProt P02787 20-698); test: SPR (Biacore T100), transferrin immobilised, steady-state response
T1 construct: also called TRF; pooled human transferrin (Sigma)
Excerpt: Flow rates and contact times are adjusted as necessary to provide the surface concentration of target desired for the intended application, and may vary by target. In general, for evaluating whether binding occurs, it is preferable to immobilize a relatively large quantity of target, and higher flow rates and/or longer contact times may be used. For determining kinetics, it is preferable to limit the amount of target immobilized so as to minimize rebinding and avidity effects, and lower flow rates and/or contact times may be used.
Because the off rates for these polypeptides were very high, KD values were estimated by measuring steady-state response for at least five concentrations in a two-fold dilution series, each concentration tested in duplicate. For each experiment, response data were processed using a reference surface to correct for bulk refractive index changes and any non-specific binding. Data were also double referenced using responses from blank running buffer injections. […] Analytes were injected for 60 s at a flow rate of 30 μl/min. The antigen surfaces were regenerated with 30 s consecutive pulses of NaOH/NaCl (50 mM NaOH in 1M NaCl) and Glycine (10 mM glycine-HCl, pH 2.5).

[2] = target: T1, transferrin; test: peptide microarray with organic prewash, Alexa 555 transferrin with Alexa 647 E. coli lysate; rank by the score of Example 2
[3] = target: T1, transferrin; test: peptide microarray without organic prewash, Alexa 555 transferrin with Alexa 647 E. coli lysate; rank by the score of Example 2
[4] = target: T1, transferrin; test: affinity characterisation of Example 29 (SPR; format for the purified peptides not stated)
[5] = target: T1, transferrin; test: SPR (Biacore T100), transferrin immobilised (9758 RU), steady state affinity fit
Excerpt: Affinity plots were generated for each peptide and fit using a steady state affinity model.

[6] = target: T2, Tumor Necrosis Factor-alpha (UniProt P01375 77-233); test: SPR (Biacore A100), TNF-α captured, equilibrium response over a concentration series
T2 construct: Immobilised on pipette tips or SPR chips (amine coupling or biotin capture); also called TNF-α; TNF-alpha
T2 sequence (P01375 77-233 limits assumed): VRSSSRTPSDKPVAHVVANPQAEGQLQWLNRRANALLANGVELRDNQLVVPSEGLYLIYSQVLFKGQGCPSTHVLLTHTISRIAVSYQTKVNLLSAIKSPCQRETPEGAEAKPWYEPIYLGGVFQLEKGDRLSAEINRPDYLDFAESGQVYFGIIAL
Description: (§1) Point-mutant libraries were prepared in 96-well stock plates From the stock plate, peptides were diluted to 50 μM concentration in Biacore HBS-EP buffer (GE Healthcare, Piscataway, N.J.) containing 1 mg/ml carboxymethyl-dextran (Sigma-Aldrich, St. Louis, Mo.) to reduce non-specific binding to the CM-5 SPR chip surface. TNF-αt was captured on a CM-5 chip surface at different capture levels on spots 1, 2, 4, and 5 across all four flow cells corresponding to a 40-200 RU range of predicted Rₘₐₓ binding responses. Spot 3 contained only immobilized neutravidin and served as a reference spot.
(§2) Purified point-mutant affinities were measured on the Biacore A100 using SPR equilibrium binding response across a series of peptide concentrations on an SPR chip with TNF-α captured as described above.

[7] = target: T2, Tumor Necrosis Factor-alpha; test: SPR; reference TNF1 lead peptide
Description: as §1, §2

[8] = target: T2, Tumor Necrosis Factor-alpha; test: SPR (Biacore A100), TNF-α captured, equilibrium response over a concentration series; remark: listed apart in the source
Description: as §1, §2

[9] = target: T2, Tumor Necrosis Factor-alpha; test: SPR; reference TNF1 lead peptide; remark: listed apart in the source
Description: as §1, §2

[10] = target: T2, Tumor Necrosis Factor-alpha; test: SPR (Biacore A100) point-mutant screen at 50 µM peptide
Description: as §1
Using the prepared 96-well plates and Biacore A100 SPR instrument, four peptides were flowed separately, in parallel, through the four flow cells over all 4 TNF-α spots and the neutravidin reference spot, with a 60 second association phase and 300 second dissociation phase. SPR sensorgrams were recorded for each peptide response with all 4 TNF-α spots and the neutravidin reference spot across the four flow cells on the SPR chip. Surface regeneration was performed after every 12 injections in each flow cell with Biacore Glycine 2.5 regeneration solution (GE Healthcare, Piscataway, N.J.). Point-mutant reference subtracted, peptide molecular weight adjusted, responses at the late binding region of the sensorgram (a few seconds before dissociation) were compared to the response of the TNF1 lead

[11] = target: T2, Tumor Necrosis Factor-alpha; test: SPR; difference to the TNF1 lead peptide
Description: as §1, §2

[12] = target: T3, Gal80 (UniProt P04387 1-435, limits assumed); test: SPR, gal80 immobilised on the chip; Kd from on and off rates
T3 construct: Cy3/Cy5 labelled on arrays, immobilised for SPR and ELISA
T3 sequence (looked up): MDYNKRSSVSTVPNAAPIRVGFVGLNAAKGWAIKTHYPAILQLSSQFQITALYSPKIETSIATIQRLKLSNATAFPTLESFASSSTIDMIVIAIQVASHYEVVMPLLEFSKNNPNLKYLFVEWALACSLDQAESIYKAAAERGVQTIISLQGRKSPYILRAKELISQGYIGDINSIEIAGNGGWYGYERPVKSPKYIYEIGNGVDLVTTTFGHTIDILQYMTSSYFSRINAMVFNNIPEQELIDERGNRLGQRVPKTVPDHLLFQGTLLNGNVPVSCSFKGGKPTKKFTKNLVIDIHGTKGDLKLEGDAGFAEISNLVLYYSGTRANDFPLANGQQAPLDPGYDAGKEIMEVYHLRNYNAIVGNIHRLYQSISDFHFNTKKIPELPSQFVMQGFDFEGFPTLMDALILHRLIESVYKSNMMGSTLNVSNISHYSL

[13] = target: T3, Gal80; test: light-directed peptide array, 25 µM labelled GAL80 with 1 mg/mL E. coli lysate; relative to template BP2;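 also: array read-out by fluorescence scanning, library of 10,000 peptides varied at four positions with ten residue choices, each feature present in triplicate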
Excerpt: The chemically diverse set of 10 amino acids {I,D,W,L,E,G,T,S,K,R} were selected as the amino acids to substitute into the four variable positions for a total of 10,000 unique variant peptides. Three replicates were included in the array to produce a total of 30,000 array features. […] The resulting array was imaged using a commercial fluorescence scanner.

T1 sequence (P02787 20-698 limits assumed): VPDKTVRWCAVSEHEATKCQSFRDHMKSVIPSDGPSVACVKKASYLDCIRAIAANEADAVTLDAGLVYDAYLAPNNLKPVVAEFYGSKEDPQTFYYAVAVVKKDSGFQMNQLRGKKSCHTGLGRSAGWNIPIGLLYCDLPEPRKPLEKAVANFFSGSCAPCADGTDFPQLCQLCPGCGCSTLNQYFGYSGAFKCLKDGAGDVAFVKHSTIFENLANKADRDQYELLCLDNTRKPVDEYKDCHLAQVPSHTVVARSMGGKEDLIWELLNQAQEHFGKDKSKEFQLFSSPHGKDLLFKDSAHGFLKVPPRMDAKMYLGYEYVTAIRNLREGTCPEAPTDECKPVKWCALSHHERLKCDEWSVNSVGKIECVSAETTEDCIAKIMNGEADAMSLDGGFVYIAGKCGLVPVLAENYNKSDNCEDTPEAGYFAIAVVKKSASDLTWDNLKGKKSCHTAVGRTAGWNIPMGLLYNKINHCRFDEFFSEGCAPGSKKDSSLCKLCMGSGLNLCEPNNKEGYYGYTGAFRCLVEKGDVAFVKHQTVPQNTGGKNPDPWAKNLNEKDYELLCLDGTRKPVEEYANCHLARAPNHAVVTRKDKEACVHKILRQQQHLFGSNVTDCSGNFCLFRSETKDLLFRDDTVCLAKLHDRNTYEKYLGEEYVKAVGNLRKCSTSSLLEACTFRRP

Kd [1]: ~60 µM
Rank -- prewash [2]: 603 rank
Rank - non-prewash [3]: 736 rank
Binder: APYAPQQIHYWSTLGFKGSC (20-mer ending GSC) [TRF25]

Kd [1]: ~150 µM
Rank -- prewash [2]: 9600 rank
Rank - non-prewash [3]: 5010 rank
B1: TRF19 (peptide)
peptide: KEDNPGYSSEQDYNKLDGSC
notes: 20-mer ending GSC; on arrays attached by the C-terminal Cys

Kd [5]: 150 µM
B3: TBPL025 (peptide)
peptide: GHKVVPQRQMRHAYNRNGSC
notes: Clone from mRNA display on a doped TRF26 library

Kd [5]: 150 µM
B4: TBPL005 (peptide)
peptide: GHKVVPQRQIRHAYNRYGSC
notes: Clone from mRNA display on a doped TRF26 library; synthesised and HPLC purified

Kd [1]: ~50 µM
Rank -- prewash [2]: 2090 rank
Rank - non-prewash [3]: 2720 rank
Binder: FRGWAHIFFGPHVIYRGGSC (20-mer ending GSC) [TRF23]

Rank -- prewash [2]: 712 rank
Rank - non-prewash [3]: 601 rank
Binder: RFQLTQHYAQFWGHYTWGSC (20-mer ending GSC) [TRF28]

Rank -- prewash [2]: 3320 rank
Rank - non-prewash [3]: 1290 rank
Binder: LDPLFNTSIMVNWHRWMGSC [TRF27]

Kd [1]: ~50 µM
Rank -- prewash [2]: 958 rank
Rank - non-prewash [3]: 71 rank
Binder: SVKPWRPLITGNRWLNSGSC (20-mer ending GSC) [TRF24]

Rank -- prewash [2]: 61 rank
Rank - non-prewash [3]: 711 rank
Binder: HAYKGPGDMRRFNHSGMGSC (20-mer ending GSC) [TRF22]

Rank -- prewash [2]: 289 rank
Rank - non-prewash [3]: 18 rank
Binder: GQTQFAMHRFQQWYKIKGSC (20-mer ending GSC) [TRF20]

Kd [1]: ~60 µM
Rank -- prewash [2]: 5 rank
Rank - non-prewash [3]: 84 rank
Binder: QYHHFMNLKRQGRAQAYGSC (20-mer ending GSC) [TRF21]

Fold Enhancement [13]: 10.7 fold
B13: BP2 variant EGEWTEGKKSKLGSC (peptide)
peptide: EGEWTEGKKSKLGSC
notes: Synthesised in situ on a light-directed array

Fold Enhancement [13]: 10.5 fold
B14: BP2 variant EGEWTEGKKSKTGSC (peptide)
peptide: EGEWTEGKKSKTGSC
notes: as for B13

Fold Enhancement [13]: 11 fold
B24: BP2 variant EGEWTEGKKSKRGSC (peptide)
peptide: EGEWTEGKKSKRGSC
notes: as for B13

The remaining lines, values behind:

B2: TRF26 (peptide)
peptide: AHKVVPQRQIRHAYNRYGSC
notes: 20-mer ending GSC; also called TRF26 Lead Peptide
Kd [1]: ~100 µM
Rank -- prewash [2]: 436 rank
Binding ΔG [4]: -5.56 kcal/mol
Kd [4]: 85 µM
Rank - non-prewash [3]: 596 rank

Binder: FERSYLKMPWSFLQSRQGSC [TNF1 D4S+P5Y+M7K triple mutant]
Kd [6]: 14 µM
Observed Binding ΔG [6]: -6.63 kcal/mol
Kd Fold-Change Relative to Lead [7]: 11 fold

Binder: FERDPLMMPWKFLQSRQGSC [TNF1 S11K point-mutant]
Binding ΔG [8]: -6.03 kcal/mol
Kd [8]: 40 µM
Kd Fold-Change Relative to Lead [9]: 3.9 fold
fold enhancement in SPR binding response relative to TNF1 [10]: ≥ 15 fold
Component Binding ΔG Contribution [11]: -0.82 kcal/mol

Binder: FERYPLKMPWSFLQSRQGSC [TNF1 D4Y+M7K double mutant]
Kd [6]: 17 µM
Observed Binding ΔG [6]: -6.54 kcal/mol
Kd Fold-Change Relative to Lead [7]: 9.4 fold

Binder: FERYPLMMPWSFLQSRQGSC [TNF1 D4Y point-mutant]
Binding ΔG [8]: -5.95 kcal/mol
Kd [8]: 44 µM
Kd Fold-Change Relative to Lead [9]: 3.6 fold
fold enhancement in SPR binding response relative to TNF1 [10]: ≥ 15 fold
Component Binding ΔG Contribution [11]: -0.74 kcal/mol

Binder: FERDYLMMPWSFLQSRQGSC [TNF1 P5Y point-mutant]
Binding ΔG [8]: -5.79 kcal/mol
Kd [8]: 58 µM
Kd Fold-Change Relative to Lead [9]: 2.7 fold
fold enhancement in SPR binding response relative to TNF1 [10]: ≥ 15 fold
Component Binding ΔG Contribution [11]: -0.58 kcal/mol

Binder: FERDPLKMPWSFLQSRQGSC [TNF1 M7K point-mutant]
Binding ΔG [8]: -5.93 kcal/mol
Kd [8]: 57 µM
Kd Fold-Change Relative to Lead [9]: 2.8 fold
fold enhancement in SPR binding response relative to TNF1 [10]: ≥ 15 fold
Component Binding ΔG Contribution [11]: -0.72 kcal/mol

Binder: FERDYLKMPWSFLQSRQGSC [TNF1 P5Y+M7K double mutant]
Kd [6]: 27 µM
Observed Binding ΔG [6]: -6.24 kcal/mol
Kd Fold-Change Relative to Lead [7]: 5.8 fold

Binder: FERDYLMMPWKFLQSRQGSC [TNF1 P5Y+S11K double mutant]
Kd [6]: 24 µM
Observed Binding ΔG [6]: -6.63 kcal/mol
Kd Fold-Change Relative to Lead [7]: 6.6 fold

B5: BP1 on dsDNA (peptide)
affinity element BP1: GTEKGTSGWLKTGSC
modifications: C-terminal Cys joined through SMCC to the DNA linker
notes: also called BP1 alone conjugated to the double-stranded DNA linker
Kd [12]: 0.482 µM

B6: BP2 variant EGEITEGKGSKKGSC (peptide)
peptide: EGEITEGKGSKKGSC
notes: as for B13
Fold Enhancement [13]: 9.87 fold

Binder: EGEITEGKLSKKGSC [BP2 variant EGEITEGKLSKKGSC]
Fold Enhancement [13]: 9.72 fold

B7: BP2 variant EGEITEGKKSKLGSC (peptide)
peptide: EGEITEGKKSKLGSC
notes: as for B13
Fold Enhancement [13]: 11.1 fold

B8: BP2 variant EGEITEGKKSKRGSC (peptide)
peptide: EGEITEGKKSKRGSC
notes: as for B13
Fold Enhancement [13]: 10.5 fold

B9: BP2 variant EGEWTEGKKSKIGSC (peptide)
peptide: EGEWTEGKKSKIGSC
notes: as for B13
Fold Enhancement [13]: 10.4 fold

B10: BP2 variant EGEKTEGKKSKEGSC (peptide)
peptide: EGEKTEGKKSKEGSC
notes: as for B13
Fold Enhancement [13]: 9.7 fold

B11: BP2 variant EGEDTEGKKSKLGSC (peptide)
peptide: EGEDTEGKKSKLGSC
notes: as for B13
Fold Enhancement [13]: 10.4 fold

B12: BP2 variant EGEWTEGKKSKEGSC (peptide)
peptide: EGEWTEGKKSKEGSC
notes: as for B13
Fold Enhancement [13]: 10.7 fold

B15: BP2 variant EGEKTEGKKSKGGSC (peptide)
peptide: EGEKTEGKKSKGGSC
notes: as for B13
Fold Enhancement [13]: 9.24 fold

B16: BP2 variant EGEITEGKKSKEGSC (peptide)
peptide: EGEITEGKKSKEGSC
notes: as for B13
Fold Enhancement [13]: 10.9 fold

B17: BP2 variant EGEITEGKKSKIGSC (peptide)
peptide: EGEITEGKKSKIGSC
notes: as for B13
Fold Enhancement [13]: 11.3 fold

B18: BP2 variant EGEWTEGKKSKGGSC (peptide)
peptide: EGEWTEGKKSKGGSC
notes: as for B13
Fold Enhancement [13]: 11.1 fold

B19: BP2 variant EGEDTEGKKSKRGSC (peptide)
peptide: EGEDTEGKKSKRGSC
notes: as for B13
Fold Enhancement [13]: 10.4 fold

B20: BP2 variant EGEKTEGKKSKLGSC (peptide)
peptide: EGEKTEGKKSKLGSC
notes: as for B13
Fold Enhancement [13]: 9.81 fold

B21: BP2 variant EGEDTEGKKSKEGSC (peptide)
peptide: EGEDTEGKKSKEGSC
notes: as for B13
Fold Enhancement [13]: 10.1 fold

B22: BP2 variant EGEITEGKKSKSGSC (peptide)
peptide: EGEITEGKKSKSGSC
notes: as for B13
Fold Enhancement [13]: 9.91 fold

B23: BP2 variant EGEDTEGKKSKGGSC (peptide)
peptide: EGEDTEGKKSKGGSC
notes: as for B13
Fold Enhancement [13]: 10.8 fold

B25: BP2 variant EGEKTEGKKSKTGSC (peptide)
peptide: EGEKTEGKKSKTGSC
notes: as for B13
Fold Enhancement [13]: 8.5 fold

B26: BP2 variant EGEDTEGKKSKTGSC (peptide)
peptide: EGEDTEGKKSKTGSC
notes: as for B13
Fold Enhancement [13]: 10.2 fold

B27: BP2 variant EGEDTEGKKSKIGSC (peptide)
peptide: EGEDTEGKKSKIGSC
notes: as for B13
Fold Enhancement [13]: 10.4 fold

B28: BP2 variant EGEITEGKKSKTGSC (peptide)
peptide: EGEITEGKKSKTGSC
notes: as for B13
Fold Enhancement [13]: 10.6 fold

B29: BP2 variant EGEITEGKKSKGGSC (peptide)
peptide: EGEITEGKKSKGGSC
notes: as for B13
Fold Enhancement [13]: 10.8 fold

Reference: patent US20190194358A1 (ARIZONA BOARD OF REGENTS A BODY CORPORATE OF THE STATE OF …, published 2019)
